Measurements as given in the supplement of paper PMC7877785.
± gives the uncertainty stated by the source.

Assay: self-splicing fitness, log relative to wild type (ln ratio); higher = more splicing; Tetrahymena group I intron in knt gene, E. coli kanamycin selection, DiMSum; sequences stand for … in CUCUCU…GGAGGGAAAAGUUAUCAGGCAUGCACCUGGUAGCUAGUCUUUAAACCAAUAGAUUGCAUCGGUUUAAAAGGCAAGACCGUCAAAUUGCGGGAAAGGGGUCAACAGCCGUUCAGUACCAAGUCUCAGGGGAAACUUUGAGAUGGCCUUGCAAAGGGUAUGGUAAUAAGCUGACGGACAUGGUCCUAACCACGCAGCCAAGUCCUAAGUCAACAGAUCUUCUGUUGAUAUGGAUGCAGUUCACAGACUAAAUGUCGGUCGGGGAAGAUGUAUUCUUCUCAUAAGAUAUAGUCGGACCUCUCCUUAAUGGGAGCUAGCGGAUGAAGUGAUGCAACACUGGAGCCGCUGGGAACUAAUUUGUAUGCGAAAGUAUAUUGAUUAGUUUUGGAGUACUCGUGGUCG
Outline: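 The eight P1ex-region nucleotides of an intron in the knt kanamycin-resistance gene on pET-22b(+) were all randomised and the library put into E. coli BL21(DE3). Six replicate transformations were grown overnight at 37°C or 30°C on LB agar with or without 25 μg/mL kanamycin, together with 100 μg/mL carbenicillin, 50 μM IPTG and 0.2% rhamnose. Colonies were pooled and amplicon-sequenced on an Illumina HiSeq 2500. Fitness from DiMSum is the error-weighted combination of wild-type-normalised replicate fold changes, kanamycin over none.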

Sequence | self-splicing fitness (ln) (30 °C) | self-splicing fitness (ln) (37 °C)
AUCUAGCAAUAUUACGACUA | -0.918 ± 0.2 | -0.511 ± 0.16
AUUAAGCAAUAUUACGAUCG | -2.33 ± 0.12 | -0.671 ± 0.12
GCGUAGCAAUAUUACGGUAC | -2.72 ± 0.25 | -1.44 ± 0.19
CGCCAGCAAUAUUACGCCAU |  | -2.11 ± 0.46
GUUAAGCAAUAUUACGACUC | 0.708 ± 0.15 | 0.214 ± 0.17
UCAAAGCAAUAUUACGUGCU | -4.45 ± 0.3 | -2.93 ± 0.21
AGAAAGCAAUAUUACGGAGA | -3 ± 0.22 | -2.79 ± 0.23
AGGUAGCAAUAUUACGAAAU | -2.048 ± 0.018 | -1.19 ± 0.035
GCCCAGCAAUAUUACGUCUC | -1.3 ± 0.085 | -0.175 ± 0.086
ACGUAGCAAUAUUACGUAAA | -3.11 ± 0.28 | -0.404 ± 0.19
UGAGAGCAAUAUUACGCUAC | -2.4 ± 0.49 | 
GUAGAGCAAUAUUACGUAGG | -3.28 ± 0.17 | -1.96 ± 0.17
UACAAGCAAUAUUACGAGCU | -3.19 ± 0.12 | -1.58 ± 0.11
GACGAGCAAUAUUACGCCUC | -3.23 ± 0.37 | -1.86 ± 0.38
CAGGAGCAAUAUUACGCAGC | -2.14 ± 0.18 | -2.55 ± 0.33
UCAUAGCAAUAUUACGCUUU | -3.91 ± 0.24 | -2.41 ± 0.25
GUUCAGCAAUAUUACGGCUA | -0.564 ± 0.14 | -0.232 ± 0.15
AAAAAGCAAUAUUACGGGAG | -2.11 ± 0.11 | -1.04 ± 0.12
UUCCAGCAAUAUUACGUCUA | -0.638 ± 0.082 | 0.0519 ± 0.093
AGUUAGCAAUAUUACGGACU | -3.24 ± 0.28 | -1.03 ± 0.25

Sequence | self-splicing fitness (ln) (30 °C) | self-splicing fitness (ln) (37 °C)
UCAUAGCAAUAUUACGCUCC | -2.92 ± 0.31 | -0.786 ± 0.27
CACUAGCAAUAUUACGACCG | 0.413 ± 0.1 | 0.573 ± 0.12
UGUGAGCAAUAUUACGAAGA | -2.48 ± 0.37 | 
GCCGAGCAAUAUUACGUUCU | -1.23 ± 0.1 | -0.97 ± 0.1
ACAUAGCAAUAUUACGCUAU | -2.9 ± 0.13 | -2.38 ± 0.2
GCUUAGCAAUAUUACGAUCA | -1.1 ± 0.14 | -0.788 ± 0.16
AAUUAGCAAUAUUACGUCCU | -0.344 ± 0.11 | 0.561 ± 0.16
GGGAAGCAAUAUUACGUACU | -2.15 ± 0.21 | -2.2 ± 0.22
AUAGAGCAAUAUUACGUCUA | -0.2 ± 0.076 | 0.816 ± 0.11
CAGCAGCAAUAUUACGCAGC | -4.33 ± 0.32 | -2.3 ± 0.28
GGUUAGCAAUAUUACGUGAG | -0.894 ± 0.098 | -0.197 ± 0.12
CAGUAGCAAUAUUACGUUGG | -1.56 ± 0.075 | -0.932 ± 0.1
CUUAAGCAAUAUUACGGGCA | -3.03 ± 0.23 | -2.3 ± 0.25
CGACAGCAAUAUUACGUGGA | -3.38 ± 0.17 | -3.17 ± 0.18
AGGUAGCAAUAUUACGGUUC | -2.769 ± 0.022 | -1.51 ± 0.036
UCGCAGCAAUAUUACGCGAU | -2.55 ± 0.18 | -2.97 ± 0.25
AGUCAGCAAUAUUACGCGGG | -2.8 ± 0.16 | -1.06 ± 0.2
GUUGAGCAAUAUUACGGCUU | -2.84 ± 0.28 | -1.25 ± 0.37
GUGAAGCAAUAUUACGAAUG | -0.846 ± 0.075 | -0.708 ± 0.11
